Test [1] concerns the target full length human Bcl-xL S4C, C151A, labelled (human) (UniProt Q07817). As to the kind of experiment: fluorescence cross-correlation spectroscopy (FCCS) in solution; both partners free in solution, one with a green and one with a red dye; 150 mM NaCl, 20 mM Tris, pH 7.5; incubated at least 30 min (1 h for the cBidG titration); protein concentrations up to 200 nM; CC above 2.8% indicates interaction.

Test [2] deals with full length human Bax S4C, C62S, C126S, labelled (human) (UniProt Q07812). Briefly: scanning FCCS in giant unilamellar vesicles; membrane-embedded proteins in GUVs (30% CL or MOM mix), 22 °C; membrane insertion with cBid (labelled cBid as partner, or unlabeled cBid as activator; for Bax with Bcl-xL: cBid, Bax and GUVs incubated 30 min before Bcl-xL was added); mean CC above 20% indicates interaction.
Sequence of UniProt Q07812 (Q07812 whole entry S4C/C62S/C126S): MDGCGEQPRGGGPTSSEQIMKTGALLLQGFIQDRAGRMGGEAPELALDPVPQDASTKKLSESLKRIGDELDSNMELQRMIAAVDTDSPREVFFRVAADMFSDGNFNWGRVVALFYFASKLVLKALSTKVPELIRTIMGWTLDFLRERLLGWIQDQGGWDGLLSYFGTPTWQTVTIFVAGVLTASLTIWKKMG

The target in test [3] is full length human Bcl-xL S4C, C151A, labelled (human) (UniProt Q07817). Described as above.
The target is the same in test [4]. Briefly: FCCS kinetics in solution fitted with an ODE model; Bcl-xLR and Bcl-xLG mixed and incubated 2 h at RT, then 400 nM unlabeled cBid (~10-fold excess) or buffer added at t = 0; CC followed over time; rate constants from the ODE model of scenario 2 with likelihood profiles (95% confidence).

A value given as a limit tells only on which side of the number the result lay.

Sequence of UniProt Q07817 (Q07817 whole entry S4C/C151A): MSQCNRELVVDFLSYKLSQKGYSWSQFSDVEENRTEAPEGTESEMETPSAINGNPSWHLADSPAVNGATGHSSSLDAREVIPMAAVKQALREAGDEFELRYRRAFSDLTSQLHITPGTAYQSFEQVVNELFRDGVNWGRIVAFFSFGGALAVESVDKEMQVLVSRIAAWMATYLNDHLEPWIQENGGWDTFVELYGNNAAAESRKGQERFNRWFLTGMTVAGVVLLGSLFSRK

With “cBid (caspase 8-cleaved full length mouse Bid) labelled at the C-terminal fragment (complex)”, the %CC is less than 40 % CC in test [1], less than 40 % CC in test [2] and more than 60 % CC in test [3].
In turn, “cBid (caspase 8-cleaved full length mouse Bid), unlabeled (complex)” gave a k+3 (cBid with a Bcl-xL homo-dimer, giving a cBid/Bcl-xL hetero-dimer and a Bcl-xL monomer) in test [4] of 10 to 700 M⁻¹ s⁻¹.
The substance “full length human Bax S4C, C62S, C126S, labelled (from UniProt Q07812 1-192) (natural protein)” showed a %CC (highest, in single GUVs) in test [2] of less than 100 % CC.
